Test results reported in patent US20130195884A1, “NOVEL MODULATORS OF TRAIL SIGNALLING” (Deutsches Krebsforschungszentrum, priority 2009, published 2013).

Columns and labels:
[1] = tested on: freshly isolated human hepatocytes; details: cited from earlier work
[2] = cited from earlier work
[3] = tested on: low-grade Non-Hodgkin Lymphoma (NHL); details: combination with rituximab, phase Ib, cited from earlier work
[4] = tested on: HeLa cells; assay: Titration of TRAIL-induced apoptosis, cell viability by ATP quantification (CellTiterGlo); assay type: cell-based, human
Description: FIG. 2: Titration curve for TRAIL-induced apoptosis. HeLa cells were stimulated with 0.001 to 1000 ng/ml TRAIL, followed by analysis of cell viability by the quantification of ATP (CelliterGlo® assay).
FIG. 5. TRAIL-induced cell death in HeLa cells can be rescued by siRNAs. (A) TRAIL induces apoptosis in HeLa cells. Membrane blebbing was observed after 1-2 hours and a complete loss of viable cells was detected after 24 hours. (B) The killing activity of TRAIL in HeLa cells is concentration dependent. (C) Silencing the TRAIL-R1 receptor and caspase-8 with siRNAs, rescued the apoptotic effect to 70% and 100% viability of untreated cells, respectively.
Cell viability was quantified by the measurement of ATP (CeIlTiterGlo® Luminescent Cell Viability Assay) or the quantification of mitochondrial activity (MTT assay). CellTiterGlo® Luminescent Cell Viability Assay was performed according to manufacturer's instructions. Briefly, 24 h after TRAIL treatment, CellTiterGlo® reagent was added to the medium. After mixing and shaking for 2 min, the luminescent signal was measured using Mithras LB 940 (Berthold Technologies, Bad Wildbad, Germany).
To determine the exact sensitivity to TRAIL-induced apoptosis, a dose-response curve ranging from 0.01 to 1000 ng/ml TRAIL was performed. Cell viability was quantified 24 h later by the CellTiterGlo® assay as this method is very sensitive, reproducible and applicable for high-throughput approaches. […] Maximum cell death is reached at TRAIL concentrations around 100 ng/ml (cf. FIG. 2).
The death-inducing ligand TRAIL triggers apoptosis in HeLa cells shortly after application (FIG. 5 A). During this process, the cytoplasm shrinks, the DNA condensates and the cell membrane starts blebbing, releasing fragments of the cell in a controlled manner (reviewed in Yasuhara 2007). […] This process was also monitored with a cell-based viability assay, quantifying cellular ATP-levels. TRAIL induced cell death in HeLa cells in a dose-dependant manner (FIG. 5 B).

HIS-TRAIL: soluble TRAIL with an N-terminal polyhistidine tag
Toxicity on freshly isolated human hepatocytes [1]: considerable toxicity

rhApo2L/TRAIL: untagged version of recombinant soluble TRAIL, co-developed by Genentech and Amgen
Toxicity in patients receiving the single agent [2]: no dose-limiting toxicity (DLT) or severe adverse effects (SAEs) | Serious adverse events of the combination [3]: two SAEs possibly related to the combination | Tumor response assessment ([3]; eight patients with low-grade NHL): two showed complete response, one a partial response and five stable disease

B1: TRAIL: death-inducing ligand, recombinant TRAIL used to trigger apoptosis in HeLa cells (protein, UniProt P50591 1-281, looked up)
Tumor necrosis factor ligand …: MAMMEVQGGPSLGQTCVLIVIFTVLLQSLCVAVTYVYFTNELKQMQDKYSKSGIACFLKEDDSYWDPNDEESMNSPCWQVKWQLRQLVRKMILRTSEETISTVQEKQQNISPLVRERGPQRVAAHITGTRGRSNTLSSPNSKNEKALGRKINSWESSRSGHSFLSNLHLRNGELVIHEKGFYYIYSQTYFRFQEEIKENTKNDKQMVQYIYKYTSYPDPILLMKSARNSCWSKDAEYGLYSIYQGGIFELKENDRIFVSVTNEHLIDMDHEASFFGAFLVG
Membrane blebbing observed after ([4]; HeLa cells after addition of TRAIL): 1 to 2 h | Viable cells left after TRAIL treatment ([4]; HeLa cells, 100 ng/ml recombinant TRAIL, 24 hours): no viable cells were left | TRAIL concentration at which maximum cell death is reached ([4]; HeLa cells, dose-response 0.01 to 1000 ng/ml TRAIL, viability after 24 h, CellTiterGlo): around 100 ng/ml
